Measured values published in the nanobody polyreactivity screen of Harvey et al. (2022).

Experiment: yeast display, Sf9 membrane polyspecificity reagent, FACS + sequencing; frameworks hold sequencing errors
Procedure, shortened: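 A synthetic nanobody library was expressed on Saccharomyces cerevisiae BJ5465 by galactose induction for 36–48 hours. The library was stained for 1 hour at 4 °C with 10% biotinylated, detergent-solubilized Sf9 membrane reagent and enriched with streptavidin microbeads before FACS. Low and high (top ~1%) gates were set on anti-HA fluorescence for expression and streptavidin fluorescence for reagent binding, and each polyreactivity label reflects the gate of origin.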

Row | Sequence | polyreactivity (PSR sort gate)
1 | QVQLVESGGALVQAGGSLRLSCAASGFIFNHYAMGWYRQAPGKEREFVAAISWSGGSTYYADSVKGRFTISRDNAKNTVYLQMNSLKPEETAVYYCAASYNGLWHGDYDYWGQGTQVTVSS | low polyreactivity
2 | QVQLVESGGALVQAGGSLRLSCAASGFIFSYYVMGWYRQAPGKERELVAAITTSGDSTYYADSVKGRFTISRDNAKNTVYLQMNSLKPEDTAVYYCAADIYYETIWHYGYWGQGTQVTVSS | high polyreactivity
3 | QVQLVESGGALVQAGGSLRLSCAASGFIFYSWYAMGWYRQAPGKQRELVAAIRSGGSTYYADSVKGRFTISRDNAKNTVYLQMNSLKPEDTAVYYCAVKYSWSEYGYWGQGTQVTVSS | low polyreactivity
4 | QVQLVESGGALVQAGGSLRLSCAASGFTFRGYAMGWYRQAPGKEMELVAAIRGGGGRTYYADSVKGRFTISRDNAKNTVYLQMNSLKPEDTAGYYCAASYYDYSDVRSDYWGQGTQVTVSS | high polyreactivity
5 | QVQLVESGGALVQAGGSLRLSCAASGIIFRYNAMGWYRQAPGKDREVVAAISWSTGSTYYADSVKGRFTISRDNAKNTVYLQMNSLKPEDTAVYYCNAYWLRHIYNYWGQGSQVTVSS | high polyreactivity
6 | QVQLVESGGALVQAGGSLRLSCAASGITFAYYAMGWYRQAPRKERELVASIRTGGSTYYADSVKGRFTISRDNAKNTVYLQMNSLKPEYTAVYYCARRYRTPYDYWGQGTQVTVSS | high polyreactivity
7 | QVQLVESGGALVQAGGSLRLSCAASGITFFTNAMGWYRQAPGKERELVAAISSGGRTYYADSVKGRFTISRDNAKNTVYLQMKSLKPEDTAVYYCAKRSYFYPDYYWGQGTQVTVSS | high polyreactivity
8 | QVQLVESGGALVQAGGSLRLSCAASGLIFYYYAMGWNRPAPGKERELVAAISGGGSTYYADSVKGRFTISRDNAKNTVYLQMNSLKPEDTAVYYCAASFRYPSWLYDYWGQGTQVTVSS | low polyreactivity
9 | QVQLVESGGALVQAGGSLRLSCAASGRTFFGNAMGRYRQAPGKERELVAAISFSGGRTDYADSVKGRFTISRDNAKNTVFLQMNSLKPEDTAVYYCAARTYSAPRNRYYYWGQGTQVTVSS | high polyreactivity
10 | QVQLVESGGALVQAGGSLRLSCAASGRTFGRYAMGWYRQAPGKEREFVASISRRGGTTYYADSVKGRFTLSRDNAKNTVYLQMNSLKPEDTGVYYCAKEGSPTNPWYGSYEYDYWGQGTQVTVSS | low polyreactivity
11 | QVQLVESGGALVQAGGSLRLSCAASGRTFLGYGMGWYRQAPGKERVLVAAITSGGGSTYYADSVKGRFTISRDNAKNPVYLQMNSLKPEDTAVYYCSAKYYRAYCPHSRTRGYWGQGTQVTVSS | high polyreactivity
12 | QVQLVESGGALVQAGGSLRLSCAASGSIFCYYAMGWYRQAPGKERELVAVINSGGRTNYADSVKGRFTISRDNAKNTVYLQMNSLKPEDTEVYYCAAQGYFVDRAGRYYRGDYWGQGTQVTVSS | high polyreactivity
13 | QVQLVESGGALVQAGGSLRLSCAASGSIFVYNAMGWYIPAPGKERELVAAITSDGSTNYADSVKGRFTISRDNATNTVYLQMNSLKPEDNAVYYCNAGNDQYPSFEYDYWGQGTKVTVSS | low polyreactivity
14 | QVQLVESGGALVQAGGSLRLSCAASGSIIVYNDMRSSRQAPGKQRELVAAITSSGGSTYYADSVKGRFTISRDNAKNTVYLQMNSLKPEDTAVYYCNVWDRPLTGYDYRGQGTQVTVSS | low polyreactivity
15 | QVQLVESGGALVQAGGSLRLSCAASGSTFRKYSMGWYRQAPGKERELVAVITKSGGSTYYADSVKGRFTISRDNAKNTVYLQMNSLKPEDTAVYYCAARRGGARHDYWGQGTQVTVSS | high polyreactivity
16 | QVQLVESGGALVQAGGSLRLSCAASGSTFYTYVMGWYRQAPGKQREVVADITWRGGSTYYADSENGRFTISRDNAKNTVYLLMNSLKPEDTPVYYCAALSGLLWYGRMYYWGQGTQVTVSS | high polyreactivity
17 | QVQLVESGGALVQAGGSLRLSCAASRSIFWINAMGGYRQAPGTERELVADNDVSGGSTYYADTVKGRFTISRDNAKNTVYLKMNSLKPEDTEVYYCAADDYWAYLYYKTSEYDYWGQGTQVTVSS | low polyreactivity
